{"source": "paper PMC4856987", "binders": {"B1": {"name": "(auac/gtat)4 (dsDNA)", "DNA 1": "AUACAUACAUACAUAC", "DNA 2": "GTATGTATGTATGTAT", "modifications": "t2 of each unit to (deoxy)uridylate"}, "B2": {"name": "(gcca)3 (dsDNA)", "DNA 1": "GCCAGCCAGCCA", "DNA 2": "TGGCTGGCTGGC"}, "B3": {"name": "18-bp DNA, (atac)4 plus one terminal nt each side (dsDNA)", "DNA 1": "CATACATACATACATACA", "DNA 2": "TGTATGTATGTATGTATG"}, "B4": {"name": "20-bp (+290) (dsDNA)", "DNA 1": "AGTATTTACATAGATTCATC", "DNA 2": "GATGAATCTATGTAAATACT"}}, "key": {"[1]": {"target": "T1, BmSTPR (FMBP-1 STPR domain) (Bombyx mori, UniProt Q5FBS0 99-193)", "T1 sequence": "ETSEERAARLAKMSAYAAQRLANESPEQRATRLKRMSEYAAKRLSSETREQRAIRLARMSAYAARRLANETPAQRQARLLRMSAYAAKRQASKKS", "assay": "ITC"}, "[2]": {"target": "T1, BmSTPR (FMBP-1 STPR domain)", "assay": "X-ray crystal structure"}, "[3]": {"target": "T2, BmSTPR with R1 deleted (R2-R4) (Bombyx mori, UniProt Q5FBS0 122-193)", "T2 sequence": "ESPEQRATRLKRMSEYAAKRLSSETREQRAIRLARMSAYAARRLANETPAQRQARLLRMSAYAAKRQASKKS", "assay": "ITC"}}, "data": [{"binder": "B1", "values": [{"measurement": "Kd", "setting": "[1]", "value": 183, "unit": "nM"}]}, {"binder": "B2", "values": [{"measurement": "Kd", "setting": "[1]", "value": "44600 ± 14300", "unit": "nM"}]}, {"binder": "B3", "values": [{"measurement": "binding result", "setting": "[2]", "value": "binds"}]}, {"binder": "B4", "values": [{"measurement": "Kd", "setting": "[3]", "value": 547, "unit": "nM"}]}]}
